Results as given in patent EP4786489A1, “IL-22 MUTANT, PREPARATION METHOD THEREFOR, AND USE THEREOF” (Nanjing Novoacine Biotechnology Co., Ltd., priority 2023, dated 2025).

Tests used:
Reg3β = experiment: Mouse PD: plasma Reg3β after single administration (ELISA); assay type: in vivo; set-up: Reg3βCmax: unit not given here; details: for Reg3βCmax: mouse plasma, wt IL-22 i.p.
Procedure: The ELISA method was used to determine the baseline levels and post-dose changes of the biomarker Reg3β in plasma samples before and after administration of different test candidates.
For the preferable test candidates, one mouse per dose group was subcutaneously injected at 0.5, 1, or 3 mg/kg. The control molecules were IL-22-Fc, administered subcutaneously at 0.3 and 1 mg/kg, and wt IL-22, administered intraperitoneally at the corresponding doses.
Approximately 40 µL of orbital blood was collected with anticoagulation on the day before dosing and at 4, 24, 48, 96, 144, 192, 264, 336, and 408 hours after dosing, followed by plasma separation. ELISA plates were coated overnight at 4°C with 1 µg/mL anti-Reg3β (Sino Biological, 51153-R065) dissolved in PBS. Mouse Reg3β (Sino Biological, 51153-M08H) was serially diluted to generate a positive control standard curve. Plasma samples were appropriately diluted to fall within the linear range of the standard curve. After blocking, samples were added and incubated for 2 hours. Incubation was then performed with the secondary antibody sheep anti-mouse Reg3β (R&D Systems, AF5110-SP) and HRP-conjugated antibody (HRP-Rabbit anti-sheep IgG H&L, Abcam, Ab97130). After final washing, tetramethylbenzidine peroxidase substrate (TMB, Surmodics, TMBS-1000-01) was added for color development for 10 minutes. The reaction was terminated with 2 M sulfuric acid, and absorbance was read at 450 nm with 630 nm as reference using a microplate reader. The original concentrations of Reg3β in each sample were calculated. Concentration versus time curves were plotted (Figure 9).

[1] = tested on: DSS-induced mouse acute colitis model; experiment: Mouse DSS-induced colitis efficacy model; assay type: in vivo, Balb/C mice
Text: Balb/C mice were used to evaluate efficacy in a DSS-induced mouse acute colitis model. DSS refers to Dextran Sulfate Sodium Salt (MW: 36,000-50,000). When added to drinking water at an appropriate concentration, DSS disrupts intestinal epithelial cells and induces acute inflammatory bowel disease (IBD) in mice. Therefore, a 4% DSS-induced mouse IBD model was used to evaluate the potential therapeutic efficacy of the test candidates.
Male Balb/C mice were allowed free access to drinking water containing 4% DSS until the average body weight of the model group decreased by approximately 15%. Fresh drinking water was then provided, followed by a 2-day recovery period. Body weight and the severity of loose stool/hematochezia for each mouse were monitored throughout the study (Figure 13), and a composite Disease Activity Index (DAI) was evaluated (Figure 14). At the endpoint, the colon of each mouse was collected and its length measured (Figure 15). The colons were photographed, rolled into a Swiss-roll configuration, fixed in 4% paraformaldehyde, dehydrated, embedded in paraffin, sectioned, and subjected to H&E staining (Figures 17-18). Histological scoring was performed on tissue morphology(Figure 16).
The dosing regimen of the test candidates was as follows (the day of DSS modeling was defined as D1, the previous day as D-1, and so on). Table 15. Dosing information for the mouse DSS-induced colitis model study
Paraffin sections of colon tissues were subjected to H&E staining and histopathological analysis. According to the actual severity of the lesions, the following scoring criteria were used: minimal (1 point), mild (2 points), moderate (3 points), and severe (4 points). Lesion area (%) scoring criteria were defined as: ≥50% (4 points), 25%-50% (3 points), 10%-25% (2 points), and ≤10% (1 point). Inflammation depth scoring criteria were defined as: epithelium (1 point), lamina propria (2 points), and muscularis mucosae (3 points). No lesion was recorded as "-". The score was calculated by summing the scores from the above three dimensions.

ear skin inflammation = details: mouse, in vivo
Procedure: Balb/C mice were used for induction of ear skin inflammation. By repeated inner-ear injections of the test candidates, changes in ear swelling thickness after injection were measured to reflect the ability of the test candidates to induce local inflammatory responses in the skin.
On Days 0, 1, 2 and 4, 5 µL of PBS solution containing the indicated amount of each test candidate was injected into the inner side of both ears of each mouse. Ear thickness was measured daily using a micrometer, and the increase of ear thickness relative to Day 0 (delta thickness) on each day after injection was calculated.

B1: 60K-PEG-IL22-P120C: IL-22 cysteine mutant, conjugation site 87, PEG-maleimide 60kD (conjugate)
chain: APISSHCRLDKSNFQQPYITNRTFMLAKEASLADNNTDVRLIGEKLFHGVSMSERCYLMKQVLNFTLEEVLFPQSDRFQPYMQEVVCFLARLSNRLSTCHIEGDDLHIQRNVQKLKDTVKKLGESGEIKAIGELDLLFMSLRNACI
Normalized Cmax ratio of Reg3β (relative to IL-22-Fc) (Reg3β; 0.5mg/kg single dose vs IL-22-Fc 0.3 mg/kg): 265%
Reg3βCmax (Reg3β; 0.5mg/kg single dose, test candidates s.c., one mouse per dose group): 41.8
Normalized Cmax ratio of Reg3β (relative to IL-22-Fc) (Reg3β; 1mg/kg single dose): 133%
Reg3βCmax (Reg3β; 1mg/kg single dose, s.c.): 43.9
Reg3βCmax (Reg3β; 3mg/kg single dose, s.c.): 43.3
peak concentrations of Reg3β stimulation compared with IL-22-Fc (Reg3β; similar (0.5 mg/kg vs. 0.3 mg/kg) or identical (1 mg/kg) doses): higher peak concentrations
efficacy compared with 0.03 mg/kg IL-22-Fc (Group G6) ([1]; 0.1 mg/kg (Group G4), body weight, DAI, colon length, histological scoring): superior efficacy
colon tissue morphology (H&E histology) ([1]; 0.1 mg/kg s.c., days 4 and 6 (G4)): relatively intact
efficacy dose difference relative to IL-22-Fc ([1]; 0.1 mg/kg vs 0.03 mg/kg): 3 fold
efficacy in the mouse DSS-induced acute colitis model ([1]; body weight, DAI, colon length, histological scoring): clear efficacy
equivalent dose required to induce a comparable overall increase in ear thickness, relative to IL-22-Fc (ear skin inflammation): approximately 8 fold
